Source: article PMC2665219 (Nucleic Acids Research, 2009)

Biological target: the molecule itself
Assay: SEC

Binder | stoichiometry N
EbfC K16A mutant (natural protein, Borrelia burgdorferi strain B31, UniProt O51418 1-99, looked up) MAVNPLDFLKNMSSVANNIDNIKKEISKITVCGKAGSNIVTIEMDGEFNVKKVSINKEFFDDLDNDAFEQMIKSALNDAVSKVKEEIKLKTMGVLPFGM | 2
EbfC K23A mutant (natural protein, Borrelia burgdorferi strain B31, UniProt O51418 1-99, looked up) MAVNPLDFLKNMSSVKNNIDNIAKEISKITVCGKAGSNIVTIEMDGEFNVKKVSINKEFFDDLDNDAFEQMIKSALNDAVSKVKEEIKLKTMGVLPFGM | 2
EbfC K82A mutant (natural protein, Borrelia burgdorferi strain B31, UniProt O51418 1-99, looked up) MAVNPLDFLKNMSSVKNNIDNIKKEISKITVCGKAGSNIVTIEMDGEFNVKKVSINKEFFDDLDNDAFEQMIKSALNDAVSAVKEEIKLKTMGVLPFGM | 2
EbfC K84A mutant (natural protein, Borrelia burgdorferi strain B31, UniProt O51418 1-99, looked up) MAVNPLDFLKNMSSVKNNIDNIKKEISKITVCGKAGSNIVTIEMDGEFNVKKVSINKEFFDDLDNDAFEQMIKSALNDAVSKVAEEIKLKTMGVLPFGM | 2
EbfC K88A mutant (natural protein, Borrelia burgdorferi strain B31, UniProt O51418 1-99, looked up) MAVNPLDFLKNMSSVKNNIDNIKKEISKITVCGKAGSNIVTIEMDGEFNVKKVSINKEFFDDLDNDAFEQMIKSALNDAVSKVKEEIALKTMGVLPFGM | 2
EbfC D20A mutant (natural protein, Borrelia burgdorferi strain B31, UniProt O51418 1-99, looked up) MAVNPLDFLKNMSSVKNNIANIKKEISKITVCGKAGSNIVTIEMDGEFNVKKVSINKEFFDDLDNDAFEQMIKSALNDAVSKVKEEIKLKTMGVLPFGM | 2
EbfC D78A mutant (natural protein, Borrelia burgdorferi strain B31, UniProt O51418 1-99, looked up) MAVNPLDFLKNMSSVKNNIDNIKKEISKITVCGKAGSNIVTIEMDGEFNVKKVSINKEFFDDLDNDAFEQMIKSALNAAVSKVKEEIKLKTMGVLPFGM | 2
EbfC E85A mutant (natural protein, Borrelia burgdorferi strain B31, UniProt O51418 1-99, looked up) MAVNPLDFLKNMSSVKNNIDNIKKEISKITVCGKAGSNIVTIEMDGEFNVKKVSINKEFFDDLDNDAFEQMIKSALNDAVSKVKAEIKLKTMGVLPFGM | 2

biological target: T1, EbfC (Borrelia burgdorferi, UniProt O51418 1-99); assay: EMSA
T1 sequence: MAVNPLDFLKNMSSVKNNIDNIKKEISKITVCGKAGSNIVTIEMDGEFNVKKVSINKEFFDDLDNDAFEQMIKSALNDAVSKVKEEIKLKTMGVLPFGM

Binder | binding result
b-C2+3 (dsDNA) DNA 1: TTGTAATGAGTAGTGCATTTGCAATGGAGAGATTTTGGGGAGTTGTTTAAAATTACATTTGCGTTTTGTTACAACACAACAGCTGAATGTAACAAAATTATATATTTAAATCTTTGAAATATTGC DNA 2: GCAATATTTCAAAGATTTAAATATATAATTTTGTTACATTCAGCTGTTGTGTTGTAACAAAACGCAAATGTAATTTTAAACAACTCCCCAAAATCTCTCCATTGCAAATGCACTACTCATTACAA | binds
b-C1/2+3 (dsDNA) DNA 1: TTGTAATGAGTAGTGCATTTGCAATGGAGAGATTTTGGGGAGTTGTTTAAAATTACATTTGCGTTTTGTTACAACACAACAGCTGAACACAACAAAATTATATATTTAAATCTTTGAAATATTGC DNA 2: GCAATATTTCAAAGATTTAAATATATAATTTTGTTGTGTTCAGCTGTTGTGTTGTAACAAAACGCAAATGTAATTTTAAACAACTCCCCAAAATCTCTCCATTGCAAATGCACTACTCATTACAA | binds

biological target: T1, EbfC; assay: EMSA; remark: another data set of the same source

Binder | binding result
b-C30 (dsDNA) DNA 1: TTGTAATGAGTAGTGCATTTGCAATGGAGAGATTTTGGGGAGTTGTTTAAAATTACATTTGCGTTTTGTTAAAACACAACAGCTGAATGTAACTAAATTATATATTTAAATCTTTGAAATATTGC DNA 2: GCAATATTTCAAAGATTTAAATATATAATTTAGTTACATTCAGCTGTTGTGTTTTAACAAAACGCAAATGTAATTTTAAACAACTCCCCAAAATCTCTCCATTGCAAATGCACTACTCATTACAA | binds
b-C40 (dsDNA) DNA 1: TTGTAATGAGTAGTGCATTTGCAATGGAGAGATTTTGGGGAGTTGTTTAAAATTACATTTGCGTTTTGTTAAAACACAACAGCTGAATGTGACAAAATTATATATTTAAATCTTTGAAATATTGC DNA 2: GCAATATTTCAAAGATTTAAATATATAATTTTGTCACATTCAGCTGTTGTGTTTTAACAAAACGCAAATGTAATTTTAAACAACTCCCCAAAATCTCTCCATTGCAAATGCACTACTCATTACAA | binds

biological target: T1, EbfC; assay: EMSA; remark: another data set of the same source

Binder | binding result
b-C20 (dsDNA) DNA 1: TTGTAATGAGTAGTGCATTTGCAATGGAGAGATTTTGGGGAGTTGTTTAAAATTACATTTGCGTTTTGTTAAAACACAACAGCTGAATGTAAAAAAATTATATATTTAAATCTTTGAAATATTGC DNA 2: GCAATATTTCAAAGATTTAAATATATAATTTTTTTACATTCAGCTGTTGTGTTTTAACAAAACGCAAATGTAATTTTAAACAACTCCCCAAAATCTCTCCATTGCAAATGCACTACTCATTACAA | no binding
b-C50 (dsDNA) DNA 1: TTGTAATGAGTAGTGCATTTGCAATGGAGAGATTTTGGGGAGTTGTTTAAAATTACATTTGCGTTTTGTTAAAACACAACAGCTGAATGTATCAAAATTATATATTTAAATCTTTGAAATATTGC DNA 2: GCAATATTTCAAAGATTTAAATATATAATTTTGATACATTCAGCTGTTGTGTTTTAACAAAACGCAAATGTAATTTTAAACAACTCCCCAAAATCTCTCCATTGCAAATGCACTACTCATTACAA | no binding
